Data: publication PMC4244684 (The Journal of biological chemistry, 2007)
Where two headings read alike, the source gives them in different places.

T1: Su(dx) WW1 domain (Drosophila, UniProt Q9Y0H4 352-398)
T1 chain (looked up): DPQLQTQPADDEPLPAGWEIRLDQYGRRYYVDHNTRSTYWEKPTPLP


How the values were obtained:
Test in all cases: ITC
Su(dx) WW3 domain [1] = target: T2, Su(dx) WW3 domain (Drosophila, UniProt Q9Y0H4 471-514)
Su(dx) WW2 domain [2] = target: T3, Su(dx) WW2 domain (Drosophila, UniProt Q9Y0H4 392-431)
Su(dx) WW3 domain [3] = target: T2, Su(dx) WW3 domain; remark: listed apart in the source
Su(dx) WW2 domain [4] = target: T3, Su(dx) WW2 domain; remark: listed apart in the source
Su(dx) WW1 domain = target: T1, Su(dx) WW1 domain
[5] = target: Su(dx) WW4 (F549W) mutant domain (Drosophila, UniProt Q9Y0H4 515-557, F549W)
[6] = target: Su(dx) WW3-4 tandem domain pair (Drosophila, UniProt Q9Y0H4 474-554)
[7] = target: Su(dx) WW3-4 preloaded (saturated) with WBP1 peptide (Drosophila | , UniProt Q9Y0H4 474-554)
Su(dx) WW4 domain = Su(dx) WW4 domain (Drosophila, UniProt Q9Y0H4 515-557)
[8] = target: Su(dx) WW3-4 (W505F) mutant tandem pair (Drosophila, UniProt Q9Y0H4 474-554, W505F)
Su(dx) WW3-4 (W505F) mutant tandem pair, sequence (Q9Y0H4 474-554 W505F): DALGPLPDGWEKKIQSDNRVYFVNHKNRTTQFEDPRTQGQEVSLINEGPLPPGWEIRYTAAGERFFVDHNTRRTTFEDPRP

T2 sequence (Q9Y0H4 471-514): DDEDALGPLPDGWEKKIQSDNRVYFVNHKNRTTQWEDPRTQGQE
T3 sequence (Q9Y0H4 392-431): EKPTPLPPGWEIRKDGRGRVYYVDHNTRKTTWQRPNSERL
Su(dx) WW3-4 tandem domain pair, sequence (Q9Y0H4 474-554): as the sequence (Q9Y0H4 474-554 W505F) above, with F32W counted along it
Su(dx) WW4 (F549W) mutant domain, sequence (Q9Y0H4 515-557 F549W): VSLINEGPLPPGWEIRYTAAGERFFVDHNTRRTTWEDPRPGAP
Su(dx) WW4 domain, sequence (Q9Y0H4 515-557): as the sequence (Q9Y0H4 515-557 F549W) above, with W35F counted along it
Su(dx) WW3-4 preloaded (saturated) with WBP1 peptide, sequence (Q9Y0H4 474-554): as the sequence (Q9Y0H4 474-554 W505F) above, with F32W counted along it

Binder	Kd (Su(dx) WW3 domain [1]) [µM]	Kd (Su(dx) WW2 domain [2]) [µM]	Kd (Su(dx) WW3 domain [3]) [µM]	Kd (Su(dx) WW2 domain [4]) [µM]	Kd (Su(dx) WW1 domain) [µM]	Kd [5] [µM]	Kd [6] [µM]	Kd [7] [µM]	Kd (Su(dx) WW4 domain) [µM]	Kd [8] [µM]
GPPPPPYPG [WBP1 peptide]	115	117	114	116	125	31	185			
AKQPPSYEDCIK [Notch PY motif peptide N1]			208	199	214	15	95	42	45	97
AKQPPSYEDC [Notch PY motif peptide N2]									45	
